Experimental data: patent US20240254227A1 (Alector, published 2024)
Blank lines part the entries; values can stand above or below the binder they belong to.

Tests used:
[1] = molecular target: T1, recombinant human CD300LB overexpressed on Jurkat cells (human, UniProt A8K4G0 18-201); experiment: flow cytometry, geometric mean (APC-A), Jurkat cells overexpressing huCD300LB
T1 construct: also called huCD300LB; huCD300LB-expressing Jurkat cells
T1 sequence: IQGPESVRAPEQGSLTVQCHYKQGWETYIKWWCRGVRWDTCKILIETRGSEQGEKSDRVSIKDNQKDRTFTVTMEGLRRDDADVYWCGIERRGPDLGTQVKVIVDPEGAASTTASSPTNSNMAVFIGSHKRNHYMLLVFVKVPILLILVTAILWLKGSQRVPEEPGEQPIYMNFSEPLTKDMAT
Experimental: Purified anti-CD300LB antibodies of the present disclosure were evaluated for their binding affinity to either Jurkat cells overexpressing recombinant huCD300LB or BaF/3 cells overexpressing recombinant muCD300LB. Binding of anti-CD300LB antibodies to the cells was determined as follows. Cells were harvested, washed, and labeled with propidium iodide for viability discrimination. After washing the cells with PBS, 1×10⁵ cells were aliquoted per well in 96-well U-bottom plates and incubated with 100 μL of purified anti-CD300LB antibody at various concentrations in FACS buffer (PBS+2% FBS). After this primary incubation, the supernatant was removed via centrifugation, the cells washed twice with 150 μL of ice-cold FACS buffer, and then incubated with the appropriate secondary antibody on ice for 30 minutes. Following the secondary antibody incubation, the cells were again washed twice with ice-cold FACS buffer and resuspended in a final volume of 200 L FACS buffer. Flow cytometry analysis was then performed using the FACSCanto system (BD Biosciences).
To determine affinity, antibodies at increasing concentrations were used to stain Jurkat cells overexpressing huCD300LB and geometric MFI values measured by the flow cytometer were analyzed on Prism (Graphpad) software.

[2] = molecular target: T2, murine CD300LB-Fc (mouse); experiment: SPR (Carterra LSA), antibody immobilised, Fc fusion at 300 or 600 nM
T2 construct: mouse IgG2a-Fc fusion (R&D Systems); the entry is the whole fusion chain; also called mCD300LB; Mouse CD300LB-Fc
T2 chain: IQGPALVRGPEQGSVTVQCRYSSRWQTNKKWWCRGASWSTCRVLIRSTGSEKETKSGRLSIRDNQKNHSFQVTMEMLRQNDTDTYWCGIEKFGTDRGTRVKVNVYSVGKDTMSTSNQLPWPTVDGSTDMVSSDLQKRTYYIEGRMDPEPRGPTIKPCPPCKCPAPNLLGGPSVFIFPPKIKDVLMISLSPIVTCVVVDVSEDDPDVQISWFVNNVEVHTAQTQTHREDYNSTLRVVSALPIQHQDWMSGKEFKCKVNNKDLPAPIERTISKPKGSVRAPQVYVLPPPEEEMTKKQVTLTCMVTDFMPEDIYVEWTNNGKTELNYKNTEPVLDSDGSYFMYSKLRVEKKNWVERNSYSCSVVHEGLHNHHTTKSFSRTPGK
Experimental: Binding of mouse anti-CD300LB IgG1 antibodies of the present disclosure to human and murine CD300 orthologs were evaluated by surface plasmon resonance (SPR) using a Carterra LSA instrument (Carterra, Salt Lake City, UT). […] A HC200M sensor chip (Carterra) was activated using the single channel flow cell with a 7-minute injection of a 1:1:1 mixture of 100 mM MES pH 5.5, 100 mM sulfo-NHS, 400 mM EDC (all reconstituted in MES pH 5.5; 100 μL of each mixed in vial immediately before running assay). After switching to the multi-channel array flow cell, the antibodies were injected over the activated chip in a 96-spot array for 10 minutes. The remaining unconjugated active groups on the chip were then blocked by injecting 1M Ethanolamine pH 8.5 (Carterra) for 7 minutes using the single channel flow cell. After priming with running buffer (HBS-TE, Carterra) with 0.5 mg/ml BSA (Sigma), the immobilized anti-CD300LB antibodies were tested for their ability to bind human and mouse recombinant CD300LB extracellular domains. Human CD300 family members and mouse CD300A were hIgG1-Fc fusions, while mouse CD300LB, mouse CD300C, mouse CD300D, and mouse CD300E were mouse IgG2a-Fc fusions (R&D Systems). Binding was assessed by injecting each analyte over the entire antibody array using the single channel flow cell. CD300 analytes were diluted to 300 nM or 600 nM in running buffer and injected in series without regeneration. Two or three buffer blanks were run between each mouse or human ortholog, respectively. Data were processed and analyzed using NextGenKIT high-throughput kinetics analysis software (Carterra).
Results of anti-CD300LB antibody binding to human CD300 family members is provided below in Table 7.

[3] = molecular target: T3, murine CD300LB stably expressed on Jurkat cells (mouse, UniProt Q3U497 18-209); experiment: flow cytometry, stable Jurkat cells
T3 construct: also called muCD300LB; mouse CD300LB
T3 sequence: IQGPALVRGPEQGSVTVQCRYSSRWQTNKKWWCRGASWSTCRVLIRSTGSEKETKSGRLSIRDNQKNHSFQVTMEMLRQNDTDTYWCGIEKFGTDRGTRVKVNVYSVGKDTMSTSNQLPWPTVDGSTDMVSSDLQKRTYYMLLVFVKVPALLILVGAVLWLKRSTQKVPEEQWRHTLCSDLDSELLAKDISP

- EC50 (read off the curve) [1]: ~20 nM
B1: anti-CD300LB antibody CD-05 (antibody, V domains shown)
VH: QVQLVQSGAEVKKPGASVKVSCKASGYTFSRYYINWVRQAPGQGLEWMGWINPNSGGTNYAQKFQGRVTMTRDTSTSTVYMELSSLRSEDTAVYYCTTDQLRFGKTGPYYGMDVWGQGTTVTVSS
VL: DIQMTQSPSSLSASVGDRVTITCRASQNIGTYLNWYQQKPGKAPKLLIYAASSLQSGVPSRFSGSGSGTDFTLTISSLQPEDFATYYCQQSYSDTLTFGGGTKVEIK

- SPR binding (control subtracted) [2]: 29
B2: anti-CD300LB antibody CD-01 (antibody, V domains shown)
VH: RVQLQQSGAELVRPGASVTLSCKASGFTFTDFEMHWVKKTPVHGLEWIGAIDPESGNTAYNQKFRGKATLTADKSSSTAYMELRYLTSEDSAVYYCTPLISGADYWGQGTTLTVSS
VL: DVVMTQSPLSLPVSLGDQASISCRSSQSLVHSDGNTYLYWYLQKPGQSPKLLIYKVSNRFSGVPDRFSGSGSGTDFTFKISRVGAEDLGVYFCSQSTHVPWTFGGGTKLEII

- binding result [3]: no binding (tested: 10 ug/mL)
B3: anti-CD300LB antibody CD-02 (antibody, V domains shown)
VH: QVQLQQPGAELVRPGSSVKLSCQASGYTFTNYWMHWVRQRPIQGLEWIGNIDPSDSETHYNQKFKDRATLTVDKSSSTAYMQLSSLTSEDSAVYYCARSGVYDDEGGDYWGQGTTLTVSS
VL: ENVLTQSPAIMSASPGEKVTMTCSASSSVSYIHWYQQKSSTSPKLWIYDTSKLASGVPGRFSGSGSGNSYSLTISSMETEDVATYYCFQGSGYPLTFGAGTKLELK
